How the values were obtained:
[1] = target: cynomolgus NKG2A/CD94 (soluble antigen of the equilibrium assay) (cynomolgus) (UniProt Q68VD2); test: SPR equilibrium response, Langmuir isotherm; antibody on chip, soluble antigen
[2] = target: NKG2A expressed on KHYG-1 cells (endogenous) (human) (UniProt P26715); test: flow cytometry on KHYG-1 cells (endogenous NKG2A), MFI against Log [Ab] M
[3] = target: Human NKG2A & CD94 with mouse IgG2a Fc tag (AcroBiosystems) (human) (UniProt P26715); test: SPR (Carterra), antibody on chip, soluble antigen
[4] = target: NKG2A expressed on KHYG-1 cells (endogenous) (human) (UniProt P26715)
[5] = target: NKG2A expressed on KHYG-1 cells (endogenous) (human) (UniProt P26715); test: competition by flow cytometry on KHYG-1 cells: antibody varied, binding of HLA-E tetramer to NKG2A read as MFI

Chain of Human NKG2A & CD94 with mouse IgG2a Fc tag (AcroBiosystems) (human) (P26715 94-233 limits assumed, chain 1 of 2): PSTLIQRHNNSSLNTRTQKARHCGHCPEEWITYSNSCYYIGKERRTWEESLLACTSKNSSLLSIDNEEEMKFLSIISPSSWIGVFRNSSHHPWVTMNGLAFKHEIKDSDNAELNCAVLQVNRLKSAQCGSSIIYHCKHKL
Chain of Human NKG2A & CD94 with mouse IgG2a Fc tag (AcroBiosystems) (human) (Q13241 32-179 limits assumed, chain 2 of 2, further chain): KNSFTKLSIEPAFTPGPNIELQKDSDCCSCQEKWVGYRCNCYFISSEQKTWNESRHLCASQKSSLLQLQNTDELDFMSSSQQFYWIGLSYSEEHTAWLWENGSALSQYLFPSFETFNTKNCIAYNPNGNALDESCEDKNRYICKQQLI
Chain of NKG2A expressed on KHYG-1 cells (endogenous) (human) (P26715 whole entry, chain 1 of 2): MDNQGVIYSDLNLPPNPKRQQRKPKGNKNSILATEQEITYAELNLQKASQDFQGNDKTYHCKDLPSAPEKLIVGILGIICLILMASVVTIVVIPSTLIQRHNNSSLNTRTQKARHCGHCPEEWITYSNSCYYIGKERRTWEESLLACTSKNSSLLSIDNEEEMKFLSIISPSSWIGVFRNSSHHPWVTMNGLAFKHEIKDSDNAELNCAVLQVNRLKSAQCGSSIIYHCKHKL
Chain of NKG2A expressed on KHYG-1 cells (endogenous) (human) (Q13241 whole entry, chain 2 of 2, further chain): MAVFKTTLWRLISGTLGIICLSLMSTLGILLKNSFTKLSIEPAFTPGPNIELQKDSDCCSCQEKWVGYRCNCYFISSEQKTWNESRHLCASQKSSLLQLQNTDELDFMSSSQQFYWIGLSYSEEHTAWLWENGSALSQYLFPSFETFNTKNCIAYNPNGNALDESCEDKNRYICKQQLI
Chain of cynomolgus NKG2A/CD94 (soluble antigen of the equilibrium assay) (cynomolgus) (NKG2A, as listed by the source limits assumed, chain 1 of 2): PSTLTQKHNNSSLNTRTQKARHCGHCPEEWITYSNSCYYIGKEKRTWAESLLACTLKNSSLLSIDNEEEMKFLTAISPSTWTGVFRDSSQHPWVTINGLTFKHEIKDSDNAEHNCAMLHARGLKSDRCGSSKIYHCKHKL
Chain of cynomolgus NKG2A/CD94 (soluble antigen of the equilibrium assay) (cynomolgus) (CD94, as listed by the source limits assumed, chain 2 of 2): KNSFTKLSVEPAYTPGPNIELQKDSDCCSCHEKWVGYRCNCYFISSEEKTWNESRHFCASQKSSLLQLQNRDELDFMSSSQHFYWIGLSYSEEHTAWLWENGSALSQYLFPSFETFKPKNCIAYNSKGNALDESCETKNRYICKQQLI

B1: Benchmark anti-NKG2A antibody (IgG4) (antibody, INN chains, looked up, V domains shown)
VH: QVQLVQSGAEVKKPGASVKVSCKASGYTFTSYWMNWVRQAPGQGLEWMGRIDPYDSETHYAQKLQGRVTMTTDTSTSTAYMELRSLRSDDTAVYYCARGGYDFDVGTLYWFFDVWGQGTTVTVSS
VL: DIQMTQSPSSLSASVGDRVTITCRASENIYSYLAWYQQKPGKAPKLLIYNAKTLAEGVPSRFSGSGSGTDFTLTISSLQPEDFATYYCQHHYGTPRTFGGGTKVEIK
modifications: IgG4
Kd [1]: 11 nM | EC50 (read off the curve) [2]: 0.04 nM | Kd [3]: 0.06 nM | koff [3]: 3e-05 s⁻¹ | kon [3]: 510000 M⁻¹ s⁻¹ | % double-positive events (Q2: PD-L1+ LCL721.221-hPD-L1 cells coupled to NKG2A+ KHYG-1 cells), antibody at 2 nM; monospecific control, no bridging [cont.] [4]: 0.59% | IC50 (read off the curve) [5]: 0.3 nM

Reference: patent US20260226161A1
